Data from US9051364B2, “Composition for producing anti-amyloid beta peptide antibodies with D-peptides” (FORSCHUNGSZENTRUM JUELICH GMBH, priority 2008, dated 2015).
Where no end group is shown, it is not given here. [ ]: non-standard residue; d: D form.

Biological target: T1, amyloid beta peptide (Homo sapiens, UniProt P05067)
T1 construct: tested for the recognition of both the D3 peptide and the amyloid beta peptide in a standard ELISA
Assay: Immunization of mice with D-peptides
Assay type: in vivo
Conditions: D3 covalently bonded to KLH, booster injections
Procedure: Mice were immunized with D-peptides. Use was made of the D3 peptide and also a retro-inverse peptide of the amyloid beta peptide (riAbeta1-16; retro-inverso-Abeta(1-16)). After multiple booster injections (booster effect), fusion to generate monoclonal antibodies was carried out according to standard methods. It was possible to isolate monoclonal antibodies which bind to D3, riAbetal-16, and to the amyloid beta peptide. The immunization with the mentioned D-peptides thus leads to a protective immune response against the amyloid beta peptide. D3 was covalently bonded (crosslinking) to KLH (keyhole limpet hemocyanin) and immunized mice with standard procedures. These were then fused with mouse myeloma cells according to standard protocols. The cell culture supernatant of the resulting hybridoma cells were then tested for the recognition of both the D3 peptide and the amyloid beta peptide in a standard ELISA.

T1 sequence (P05067 672-713 limits assumed): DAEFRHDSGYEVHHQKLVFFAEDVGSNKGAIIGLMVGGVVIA

rprtr lhthr nr ([dR][dP][dR][dT][dR][dL][dH][dT][dH][dR][dN][dR]; also: conjugated to KLH) [D3, D-peptide used as immunogen, covalently bonded to KLH]
antibody response against the amyloid beta peptide after immunization: results in an antibody response against the amyloid beta peptide
